Measurements reported in FireProtDB (doi:10.1073/pnas.0911904107).

Details: Escherichia coli (strain K12), pH 8, 25 °C, Urea, CD, whole UniProt chain shown
[1] = Sodium phosphate 50 mM, reversible: Yes
[2] = sodium phosphate buffer, transition: 2, reversible: yes

B1: Lipid A palmitoyltransferase PagP wild type, P37001 (protein)
chain: MNVSKYVAIFSFVFIQLISVGKVFANADEWMTTFRENIAQTWQQPEHYDLYIPAITWHARFAYDKEKTDRYNERPWGGGFGLSRWDEKGNWHGLYAMAFKDSWNKWEPIAGYGWESTWRPLADENFHLGLGFTAGVTARDNWNYIPLPVLLPLASVGYGPVTFQMTYIPGTYNNGNVYFAWMRFQF
[1]
  denaturant m value: 1.64 kcal/mol/M
  denaturant midpoint (higher = more stable): 8.77 M
  unfolding free energy: 14.4 kcal/mol
[2]
  denaturant midpoint (higher = more stable): 8.77 M
  unfolding free energy: 14.4 kcal/mol
